Source: the DeepSol protein solubility set

Assay: soluble on expression in E. coli; label from the status in PepcDB or PDB records

Sequence	soluble on expression in E. coli
MAHHHHHHMPLFCSSTTFMLKVRRAAVKTWKCFAFIAFVSSSMRYISCGFTADDNTKSKSCPFDALGISNNSDMTTVKAAYRSKCQTEHPDVGGTEEGFRRIRWAYESCCEKLVKTGPRSNSEFDGSSHESSSKQKDDEGDYTHSYYRYKSKDERYHEQRQMFYYLFSSVETRNDIDNLLSKALRSHCFDAIDVSEPLRLSLRNYHRVTGYGEHHLTSCFAAMEHWEEYTQRRADVTQYHIMLILYTDGPKPGLTAQLISEGVEAIMEQMCVKGIEYDDWSLTLAHKAYRVCPYPST	not soluble
MAHHHHHHMPPLRGAGRGRNKTGTVPTARTNGGFKAKGSVKPRTFDEYYGEIYGARWHTLRTAMMEAPRKVALWNRFSQVPFEEATRGLSRVEPNSLIQAFQPTQTANSTEAVSTADRGINDDDEAKLQGKALAAAADDLLHRNGVIDKPPIDAFGIKAYYLLDYASAHVVEQLQVGAFDTVLDMCAAPGGKSIAVAQFLSPDGALTCNEARADRCARLRRNLQEHVPVNYVPWRTTQRDAQTWYDPGAFSRVLVDAPCSSERHLLQQSGGSPLSLREWSEETTVQLAALQRMLLQRAIETCRVGGRIVYSTCSISPLENDGVVGEVLQRTRCEVKVIKTSPAAAAAAPVALPKTATDAGESDASGAEACAPHTPTVLGEATAYGRLLLPDTCHGWGPMFLCVLEKTAEHKDVSSSSEDDDE	not soluble
MAHHHHHHMPSGDAMIPRVCRTFSDAFASDEATAKEQGKKYWISRVLGSGATGTVLCAKRRSDGQSFAVKVVEMEGMSEADKNRAQAEVQCLLNCDFFSILKCHEDFAKKDPADEENVLMVALVLDYANAGDLRQEIKNRAKAARAFREHEAGLLFIQVLLAIHHVHSRHMIHRDIKTANILLCSNGLVKLGDFGFSKMYSATVSGDVGKTFCGTPYYVAPEIWRRKPYSKKADIFSLGVLLYELLTLKRPFDGENMQEVMQKALAGRYDPLPPTISPEMTEVVTSLLCGDPHARPSSSKLLNMPICKLFVSGLLEIVQTQPSFAGPLRDTISTHIQSVKQSLKEERRVTVRQMEESQSAAAASTTILEGATPMGSVGDLTLYEGIVKKQSGDLAWKRRYLCIRGALEEGERLDVGRMPKFKSLDLVLAVSKETMRQQCITTPFSELEDVFPVASKYTGSNAQHVFAVAFKTGRRLLFQARGDPERDAWMQKIQQTLGIDEAD	soluble
MAHHHHHHMQDVDEMKYLLPNLKQPITSIQVHSWTGTKESYILESKDYVLGEGMPEKCDAIATDCFLSGFTDIGKCFQCKLLMQEKNINDSCFKYVSSNQKELIKKQLKITAQDDEESSEYHLSESIKNLLKNIYKKNNDDNKKKELLHFENVNSALKSELLNYCNLLKEVNMNGVLKDHQLGNVQDVFNNLTKLLEEHKEENDNVLYHKMKNEALCLKNVNDWMKNKTGLLLPQLSYDLTYKNNNFTEFTQNKSYTSQNIVDKLYCNHEYCNRLKDHNNCISKINVEDQKNCALSWAFASKYHLETIKCMKGYEPLNASVLYVTNCLKNKNKDVCTEGSNPLVFLETIEEKGFLPTESNYPYDQSKVGDICPQLQNDWDNVFENTKVLDYNNGPFSVGTKGYIAYESEAFQKDMHSFVKLVKDEIMNKGSVIAYVKAENVLGYELNGKKVQNLCGDKTPDHVVNIVGYGNYINNKGEKKSYWIVRNSWGKYWGDDGYFKVDMYGPSTCEDNFIHTVVVFNVQVPINEKFDKKEHDIYNYYLKTSPEFYHNLYYKTFNSNKEEKSMNKNSYVYGQDTTPVENEAPRSGVQKPTELSSTESQTVSPPNESQTESLLSGGSQVTNPTLTQSTSSSSGQQETGPLSTQGLSPATGDPKGKEQEASPAEGLSGVLNPTKEVTSEEKIQIIHLLKHIKNSKIRRGLVKYNHEFEVGDNSCSRSTSKNAEMHDECVNICEKYWPECRGTAVPGYCLSTHDDKNECDFCYV	not soluble
MAHHHHHHMQQQQQVPVGLQLMRQPYRATAEQFQRFIVGLDAVLNQWTALHLVSQHCDLSALTSMYRELVSWFQKDGEVYSDDLEIFFENFFGEARSVIVEDDSMKEVGDVLHDMYCRCCQNDFSTVERYVASLEVYRRVNPVQLSMNVGGADDEDELAGAGAMSNTYDGVVGNEEEEMETMGDGLDMKDEVEESEQRKKRRSKKRKNAYERDADGWCVVRN	not soluble
MAHHHHHHMQRNWVLLPQTVRAGDAPKSSAVRTPTRPLPYVCLKSNDGMEFVLPEVAARQSKMLAMLLDAVYSLPERGGFAEPTNARGEQHTTVHASNNIGTMPCIPLEVLSGRILELVCRYLVQRSTSDVNSTDEFALLGELNPTSSSDQDIVLGLLMASDYLDC	soluble
MAHHHHHHMQTVPSFQKTTSFHCSKAGRVLYSFREASRISGTHLPIVSAVDSYTLDSVFSEEVRPSFKSFAVDPSDRYCAAILDQDIDSVIRLFSLSAGPYPDHGAFASPAVQEEQDSAMGADEEEMEQWSIEDDDYDTDDSTDSNDDEFEEDEDDDDDSYDEEDAEEEFEEWEEEDEEESSPGTGSGSDEQEGTQASSRHAN	soluble
MAHHHHHHMRAAPTRLAPSTVASLGRSHCGSQAYHLDAAGAAGWRRRRRLTGVSMTTTHTVAPAVSALPFSLSTARRTYYWPYPENLVPEGATTSPFQSSPVPSVRERIIREYALGPLFGSRTPCCVLGFAGTARDVAACKRDVRRWVARALGKSEADVELGALVQAKEMLLHRSGTDESPRLGDGPGSRPDAEQRRVTRYARLPVQARTLLEVYLPGEEHGEVDAAADADATILAHGYFLQEQLHRHMTTTASSGSDPTGRRDSEDCQPEEPARKMQSHCQGCSEPNDEADVKSSVAALHDVCGVIYCEVPVLDESDFAFDQLCGKEVDDETTERVTDRWTRRAMQQQPQL	soluble
MAHHHHHHMRLTPLRCSAAAFHFTSLLLQGSGGGYRFFEDMYPKHDPAPRYRYYEDQMQSPTVRSLEPKKQMTETEKLHHLHDWKKDKEGLTPPPEFGWPEEWGPEPGEEGHSEWYRKNRMYMSYEEKSRYDLRVGVPVEKNSMRHQEMPYQKRMKAAYVNLEEKNPQYFDPRQRKYWAEYSYEDQRDTMAKARDDYIKEWLDEPGVTKENVAKKIGDYNGTAKNQNVKSVQRRPEWELAPRPEYDDD	not soluble
MAHHHHHHMRSFMYMCRQVQGARFIQITRSRCGRTIPYKLADIGEGIKEVEVVTLYVKPGDRIGEFEKICEVQSDKATVEITSRYAGVITTVHIEAGEKAHVGEPIVDIEVNDTDETQKPSCGTVDCNVSDQFNNGGVPVAEEGDSCAADCTTEISKDFTKVLATPAVREFARSRGVNITDVKGTGKDGRVLREDVLSYAGKSCYNDDVVVRLDTGLRKAMVSSMTKAGSVPSFTACDEVEVSQLLNFQHILRDALNSSSEGVRDGSKVSLMPLFIKAASQSLLQYPELNAHVSSECDKLFVKKAHHIGFAMDTPKGLVVPVVRDVQQKSVAELVHEVNELVTLGRKSQIPPDRMKDGTFTLSNIGPIGAIYATPMLNPPQVAIGAIGRIQQLPRFDASGNVVRANILAMSWTADHRVIDGATLVRFSNAFKRCLESPGLLIAGEVA	not soluble
MAHHHHHHMRSISTGSGANLQKPSWIAQLCSDAQKSEKTISCDVKVYDELSWRRRRFSFDKELWDPARMSSIVRRRLCLGNEEAEYTVIGEAFAFADREDSPVVNEPQHSCKLLWDHNSSVEKLLIQISDHFPPLLWYAVKPTLESLKRIFSEFLDVDAEHMKKNLPYYESVQNAMETSTQERLGVTLSPTSVKDRFVADMRRRDPKDLELDYPCEYSVFLGTSPHFRLVEDRMMKSNPFVFGWPLLLSDGNEHLDGTPLRMAAFRTVYSKSLLMFHTRLDLQVDHRLASSEAGEETLLDVPIFCNINYPKNTRLCGGKPLVQRFNTVMGTTYPLDTPVDILAALAKEQCVKGPNELLEELRFLTAAAERAPDEERVFRISDDQLSANRIVGQLAYTIIYVALVNYDRFIKDVFDVYKTHRSDMVRVACARGASIVGRPDLIEQLISAEREGPCKNMLRGVVTTP	not soluble
MAHHHHHHMRVRHKVRNAVLLKGGEADTVKPLFLLNKIKNRKLQKRNNVTLHMDNSNEDTSRLSLLKNLDDESKVITQSPEWNEKMPLLEITNLHAMEVEGGKEILKGINLTIFLGEKHTIMGRNGSGKSTLAKVIAGHPYYKVTSGTIKFKGLNLSELPVNVRSLCGIFLAFQYPVELPMVKNNEFLRAALNSHRRQRNEPEISATEFDLLMIEEIKKVGLSSEFLDRPVNYGFSGGEKKRNEILQMLILKPSFCILDETDSGLDVDSFKLTSNVITNFSNEKNSFLIVTHYKKLLELLRPNFIHIMHQGKIIESGDYSLVDKIEAKGYAQFVKDS	not soluble
